Consider one molecule from publication PMC12328743.

Bridges are numbered along the chain shown (N, C = ends). Where no end group is shown, it is not given here.

The target of the assay is staphylococcal TMcin-G1905 (mature transmembrane helix-containing bacteriocin peptide, processed product of TmcA) (Staphylococcus aureus (isolate G1905)).

B1: staphylococcal TMcin-G1905 (mature transmembrane helix-containing bacteriocin peptide, processed product of TmcA) (peptide)
chain: AWFVVLLAAILVFATAIFAGLTIWCVVNQHGKFTGNWNWHIKGVSLDVECKR
modifications: disulfide 25-50
With B1, the discrete stepwise conductance events in voltage-clamped planar lipid bilayers (DPhPC, 150 mM KCl) after adding purified TMcin-G1905; median conductance is 10.8 nS.
